Measurements published in the DeepSol protein solubility set.

assay: soluble on expression in E. coli; label from the status in PepcDB or PDB records

Row | Sequence | soluble on expression in E. coli
1 | MSLRSLTHIAKIELPPVRRVTYVKHYSIQPANLEFNAEGTPVSRDFDDVYFSNDNGLEETRYVFLGGNQLEARFPEHPHPLFVVAESGFGTGLNFLTLWQAFDQFREAHPQAQLQRLHFISFEKFPLTRADLALAHQHWPELAPWAEQLQAQWPMPLPGCHRLLLDEGRVTLDLWFGDINELISQLDDSLNQKVDAWFLDGFAPAKNPDMWTQNLFNAMARLARPGGTLATFTSAGFVRRGLQEAGFTMQKRKGFGRKREMLCGVMEQTLPLPCSTPWFNRTGSSKREVAIIGGGIASALLSLALLRRGWQVTLYCADEAPALGASGNRQGALYPLLSKHDEALNRFFSNGFTFARRLYDSLPVKFDHDWCGVTQLGWDEKSQHKIAQMLSMDLPEELAVAVEANAVEQITGVTTNCSGITYPQGGWLCPAELTRNVLELAQQQGLQIYYQYQLQDLSRKDDCWLLTFAGDQQATHSVVVLANGHQISRFSQTSSLPVYSVAGQVSHIPTTPELAKLKQVLCYDGYLTPQNPANQHHCIGASYHRGSEETAYSEDNQQQNRQRLIDCFPHAQWAKTVDVSKKEARCGVRCATRDHLPMVGNVPDYEATLVEYASLAEQKDKAVSAPVFDDLFMFAALGSRGLCSAPLCAEILAAQMSDEPIPMDASTLAALNPNRLWVRKLLKGKAVKAGEGHHHHHH | soluble
2 | MSLRVTYRRRLSYNTTSNKKRLVKTPGGRLVVQYIKKRGQIPKCRDTGVKLHGITPARPIALRLLKRNERTVTRAYGGCLSPNAVKERITRAFLVEEQKIVNKVIKHQKD | not soluble
3 | MSLRYSKLTMLIPCALLLSACTTVTPAYKDNGTRSGPCVEGGPDNVAQQFYDYRILHRSNDITALRPYLSDKLATLLSDASRDNNHRELLTNDPFSSRTTLPDSAHVASASTIPNRDARNIPLRVDLKQGDQGWQDEVLMIQEGQCWVIDDVRYLGGSVHATAGTLRQSIENREGHHHHHH | soluble
4 | MSLSAQGSQDGRFAGQLALVTGASRGIGAATAKALAAQGAHVVLVARTAKELEKVEEEIFEAGGSATIAPVDLSEPEGIARLATAISGRWSALDVLVINAAAFPTLTPVWQIDSREFNNALTLNVLATQALLAGFDGMLKKSKDARVIGVTSSVGATPRAYWGAYGASKAAFDVLLDCYAQEVRNTSAVRVAILDPGATRTKMRARAYPGENPESVKAPEVVAERMVALLGEQFSSPHRERVNQDEGHHHHHH | soluble
5 | MSLSDFDYIQKNTPPEFPEKFKTALLPENIKKNRYSDVLANDDTRVKLNNNGYINANYIFQGRMIASQAPTIETIPDFLQMIIEQQVPIVIMLTKCKEKTRIKATPYWGYKSEGGKKVFGNYTVNTIDTLYDDVEEDKFMEDIQIRYLQIIYEDGVYSFIQIHYMGWPDFGVPLNPKDALDIVYIQYIIGTTSKFSNRNLVCVHCSAGVGRTGVYCLLSRIVEMVTYEILEKSETYSKQRSTSSSSKVREVEDRIEEILLSHPVISYEDCEVILPELVLSIRNERSKMVQTKEQYDFICETVNCFYEDALDSINQYYEVIDALTEGHHHHHH | not soluble
6 | MSLSDFHEVRFPLDVALRGSGGPVRRTEIVTLASGQEHRNSRWADSRRRYDAGLGMRTLDALHAVLSFFEERRGRMYGFRYRDRVDYRSGPPSQAPAPIDQAIGTGDGATRVFALAKTYGGGPQAYRRTIAKPVAGSVRVAVNGVELAAGAVSCDPATGRLTFAPGAVPPPGAAITAGFEFDVPVRFDTDELSIDMAAFTAGEVPRIPLIEIVLEGHHHHHH | soluble
7 | MSLSDGAVVRALVLEAPRRLVVRQYRLPRIGDDDALVRVEACGLCGTDHEQYTGELAGGFAFVPGHETVGTIAAIGPRAEQRWGVSAGDRVAVEVFQSCRQCANCRGGEYRRCVRHGLADMYGFIPVDREPGLWGGYAEYQYLAPDSMVLRVAGDLSPEVATLFNPLGAGIRWGVTIPETKPGDVVAVLGPGIRGLCAAAAAKGAGAGFVMVTGLGPRDADRLALAAQFGADLAVDVAIDDPVAALTEQTGGLADVVVDVTAKAPAAFAQAIALARPAGTVVVAGTRGVGSGAPGFSPDVVVFKELRVLGALGVDATAYRAALDLLVSGRYPFASLPRRCVRLEGAEDLLATMAGERDGVPPIHGVLTEGHHHHHH | not soluble
8 | MSLSDHKIDRIRVHRVLIPGKAVHSHGIGDVAGIHAVILEVITDTGLTGWGEASPWPAFTGTAEGTVAALYTYLRPHLIGQDPVQVERHMRDAEALVVGHPEAKAALEMALLDLTGQISGLSVCELVGGRMRDDMGLSFSVANPDFGKDLEDVAAMWAEGVRIFKIKTGFKSHGFDLMRLEKLRGIYGAEADLRIDYNQGLPAYDAVRCIRDLEAFRPTFVEQPVKMHERDALAHIAHVIETPIMADESVFGVREALHGVQIRMADIFSLKVMKSGGIRRALEVSAIARAAGIEVYGGCMFETGLAHAAGAHLMAALPELRLDCEFYMSTYYASEDILTEPFPVRGGRVHVPEGPGLGVAVDPAMLAKYAQAEALGEGHHHHHH | soluble
9 | MSLSDKDKRRLEYKELAKESKAKSKMLAASQGKGLVAKIAIGSALGNIIGNAMSKAAGGLLGFAKKAVEEKSKTNRAKLLNSAFFEKDERNTIMGTLKGMKGFERDLEKEEFLNQASVFKGTLRDLGMLNLTNLKKAVEFSAALKSSGAMSGEDAVKAVNSLLSGEGDELFDLLKKSGVGDKYIEDAKKAWQSGAEVDLESRITMLVEMFKDFKSFGITKKADTKEEIDSNLASAEQTLSNLTTTVLDPLLKFIKMVTGLSEGHHHHHH | soluble
10 | MSLSDKTMTADEAVSRLRSGMTLGIGGWGSRRKPMALVRALLRSGITDLTVVSCGGPDVGMLAAAGRIRKLVAAFVTLDSIPLEPHYRAARERGALELMEIDEAMFLWGLRAAAGRLPFLPVRAGIGSDVMRVNPGLRTITSPYVDGETFVAMPALRLDAALVHLNRADRLGNGQYLGPDPYFDDLFCEAADTAYVSCERVVDTAELTKEAAPQTLLVKRHTVTGVVEAPNGADFTSCVPDYGRDEALQRYYATTPWPEFAERFLGGGEPAYRSAVQDWRKEREGHHHHHH | soluble
11 | MSLSDLFTTIKGQVTGKNVRIVLPEGTDERIVGAAARLQKENIVKPILLGNKAEIEAKAKEIGVSVEGIAIHEPATDPLFDELVAAFVERRKGKATEEAARKMLVDPNYFGTMLVYTGKAEGLVSGAAHSTGDTVRPALQIIKTKPGVSKVAGAMIMVRGEERYLFSDVAINIAPVAADLAENAIVSAETAEIFGIDPRVAMLSFSTKGSAKSDETEKVVEATALAKEKAPELTLDGEFQFDAAFVPTVAEKKAPGSVIKGDANVFIFPSLEAGNIGYKIAQRLGNFEAVGPILQGLNAPVNDLSRGCNTDDVYNLTLITAAQAVNKEGHHHHHH | soluble
12 | MSLSEAGHKFLAKLGKKRLRPGGKRATDWLIAEGGFSKEKRILEVACNRGTTAIELAQRFGCKITAVDMDAQALEVAKKSAGTAGVAHLISFERANAMKLPYQDASFDIVINEAMLTMQADQAKKKCVMEYLRVLKPGGLLLTHDVLLKEAKESIRQELSQAIHVNVGPLTQDGWEQVMIESGYCDVKALTGEMTLMKLSGMIYDEGLLGTLKICVNACKKENRKQFLTMYKMFAKNKQKLGFIAMASYKSSKREGHHHHHH | not soluble
13 | MSLSENPIASVRLLRLQREEASLQQYRDNIGALKSQLTKNETLLDGISANLRDARDLLVAAANQPPTDDLKAMASPLVSLRDSILYAANTKDSEGRYMFSGSAVNNAAIVVDDTQPAGSRYRYNGNGDRQRVTVGEGVTEASNVTLESMAPLLNQLDKAIATLQSPTLDSKDPAVGATIREVMGGVDTALDRVGGTISELGGAQNVLKTLDGNHDSLSLANQESIIELGSLDYGTAYIAMNNLSMALQTSQKAYGKVSQLTLFDVIEGHHHHHH | soluble
14 | MSLSEQHIDPTRLRMDELVVALTDRETELAAAEGRIRELEREVSELRRSLNSPSQEAELERLRLLAGTTAVTGPGVVVTLSETPEAVTAKNRVADEDIWRVVNELYTAGAEAIAVGGVRLTSVSGIRNVGERILVGETMIASPVEIHAIGDPAVLDASLKLRGGVIDLLARWGIKVTVVKSDSLTLPPLKTQPAFRYAKPAESAGSEGHHHHHH | soluble
15 | MSLSGNYLPRNTLVESLGHAMLKLSGWKIEGQLPALDKFVVIGAHHTSNWDFVAFLAAKFVLRLNARWFGKHTLFNGPLGGLMRRWGGIPIQRHLKLNTVDQAIQAFREHREFMLIIAPEGTRKKVDRWRMGFYHIARGAGVPVVPAALDYENRRIVIGEPFWPTGNEDADLCSLIGFYRPFIPKKPHYAFLGDEGHHHHHH | soluble
16 | MSLSGSDYCFSTLGCSELSLHETADLTERHGIANVELRALSGTIDLIAALTAEFGTPARFAAFLSERNLRVAALNTSMRLFGSDSLSEIEPFIDWAEAANIAYLRIFDGGKKIGPEDLDRSAALLDNWQAVRQTRGLNVDLMIETHDALSDFEQLLTFIEQVPAARILWDTHHTWAKGSNLKMVWRQIERNVVHLHVKDSVMDSDRERRYVLPGQGEFPISELLSLILPNERQIPLSLEWERHWHPQLPPLADALKAAHSWWRQGVSEGHHHHHH | soluble
17 | MSLSHYDRMKRSSIAPYRRSNDSSNRIDKKTGKKGHGLMSKLKDLVSFGWAQEHHKDNDFSARDTGRERTNVSKGSYAAVPGGFFSSDQSSFILRERSRIMNESTMHSEADTSNAKLADFFAKKGNEPLSEIEMEGVLALMQKSRGVADESSFLGNSSRLLGDISNANASQVLRTGNISTSSALNVPNFKPSTDESRNINAKEVENSTIVSTPLKRKNFDYSSIRSPYRTVIYRFDDSNKKKISSVFDKPESSSQEVDETPKPSNSKPLSNTASALVSLLSDKDAAKESIKPMANPYTSHLTALRKSREDLPSINDKITVPKRRQRSETEDKEEAKITSSNGEAQEDTNIPEGIASRKNEEAQDSFTKYKPMRSSSLRDSVSLAHTESNNEKQMNSPKFVPAPLDKNETKETAKSDLTLTSSDKQSESKPSFSFPVNSTTKSTFMGTKKESTSPAVNSEGHHHHHH | soluble
18 | MSLSIAISNAIIVTQNDNRDVYRGNVKIDGNKIQYVGKDEVDGDILIDGTNKVLMPGLINTHAHVGMSASKGLFDDVDLDSFLKKTFEYDSDRTSTGIFNSAKLGMYEMIGNGITAFVDLYYSEDIIAKAAEEIGIRAFLSWVTLDKELTTQIGDPVENAENFIRNHVGNKYVVPSVGVQGIYVANDDTFRRAMDLAEKYGTILHMHLSETRKEVYDAVKKLGERPIEHLHNIGILNKRVLAAHCVWATYHEVRLLSKDGVNVSWNSISNFKLGTGGIPPIPEMMRENVNVTIGTDSNGSNNSLDMFQAMKFSAISVKNYRWDASLMKAQEILDMATRNAARALQLNAGSIEVGKLADVVLLDATIPSMIPTNEANAVSNIVYSSSPQNVDTVIIDGEIKKINGKILGFHSNKFTNSEFKEGHHHHHH | not soluble
